Data: patent US9394371B2, “Antibody-mediated disruption of quorum sensing in bacteria” (The Scripps Research Institute, priority 2007, dated 2016)

Legend:
[1] = test system: S. aureus USA300; assay: Postexposure therapy of lethal systemic MRSA USA300 challenge; format: in vivo, C57BL/6 mice; conditions: 1 mg i.p. 2 hours after infection with at least 1×10^8 S. aureus USA300; n=6; FIG. 12
Experimental: Mice were treated with AP1-15B4 (1 mg) or control IgG (1 mg) 2 hours after S. aureus injection (1-3×10^8 i.p.). The numbers in parenthesis show survivors per group, p=0.02; n=6 for each group.
C57BL/6 mice received 1 mg of AP1-15B4 (i.p.), isotype control IgG or PBS 2 hours after they had been infected with at least 1×10^8 S. aureus USA300, an agr I MRSA strain. See Diep et al., Lancet 2006, 367, (9512), 731-739. USA300 is in fact one of the most common community-acquired MRSA (CA-MRSA) strains and represents an increasing threat for civilians and military personnel. Hageman et al., Diagn Microbiol Infect Dis 2008; James et al., Arch Dis Child Fetal Neonatal Ed 2008, 93, (1), F40-4; Tenover et al., J Clin Microbiol 2006, 44, (1), 108-18; Beilman et al., Surg Infect (Larchmt) 2005, 6, (1), 87-92. […] In contrast, only two of the PBS treated control mice (2/6) and 2 of the control IgG treated mice (2/6) survived longer than 24 hours.

[2] = molecular target: AIP-4; assay: Competition ELISA (free native AIP against hapten-BSA coated plates); format: binding, S. aureus; conditions: AP1 Sups; AP1-BSA coated plates; read-out: AIP4 wt
Experimental: (§1) The optimal concentrations of the AP4-BSA conjugate as well as of each mAb were determined. 96 well ELISA plates were coated with the appropriate amount of AP4-BSA conjugate respectively. The plates were blocked with 4% skim milk, washed and mAbs were added at the predetermined optimal concentration. The plates were washed and free antigen, i.e. the native AIPs 1-4, was added to the wells in a concentration series starting at 100 μM. The plate was incubated for 1 hour at 37° C., thoroughly washed, and goat anti-mouse-horseradish peroxidase (HRP) conjugate (Pierce, Rockford, Ill.) was added. After an incubation period of 1 hour at RT, the plate was thoroughly washed again and the HRP substrate (TMB substrate kit; Pierce) was added, the reaction was allowed to develop for 15 minute and stopped by the addition of 2 M H2SO4. The absorbance at 450 nm was read and the values plotted using GraFit (Erithacus Software Ltd). The free antigen concentration at which the absorbance value is 50% of the maximum absorbance was considered the Kd of the antibody for its antigen.
as §1, with “For the competition ELISA analysis, the optimal concentrations” for “The optimal concentrations”, “of the AP1-BSA, AP3-BSA, or AP4-BSA conjugate,” for “of the AP4-BSA conjugate”, “or AP4-BSA conjugate, as well” for “the AP4-BSA conjugate as well”, “amount of AP1-BSA, AP3-BSA, or AP4-BSA conjugate” for “amount of AP4-BSA conjugate”, “blocked with 4 v % skim milk,” for “blocked with 4% skim milk,”, “for 15 minutes and stopped” for “for 15 minute and stopped”

[3] = test system: S. aureus RN6390B; format: cell-based
[4] = test system: S. aureus RN6390B; assay: Static biofilm analysis (crystal violet); format: cell-based; conditions: FIG. 10B
[5] = molecular target: AIP-1; assay: Competition ELISA (free native AIP against hapten-BSA coated plates); format: binding, S. aureus; conditions: AP1 Sups; AP1-BSA coated plates; read-out: AIP1 wt
[6] = molecular target: AIP-2; assay: as above; format: binding, S. aureus; conditions: AP1 Sups; AP1-BSA coated plates; read-out: AIP2 wt

B1: AP1-15B4: murine anti-AIP1 monoclonal antibody; VH SEQ ID NO: 19, VL SEQ ID NO: 147 (antibody, V domains shown)
VH: EVHLVESGGDLVKPGGSLKLSCAASGFAFSDFAMSWVRQTPEKRLEWVAIIKSDDSYTYYPDSVRDRFTISRDNARNTLYLQMTSLRSEDTALYYCTKIYDAYFYAMDYWGQGTSVTVSS
VL: DIVRTQSPLSLSVSLGDQASISCRSSQSLLHSNGNTYLHWYLQKPGQSPKLLIYKVSNRFSGVPDRFSGSGSGTDFTLKISILEAEDLGIYFCSQSTHFPTFGGGTKLEIK
modifications: Murine
- mice surviving through the 48-hour observation period [1]: 4 out of 6
- Kd [2]: > 100 µM
- quorum sensing inhibition of group I strains (α-hemolysin expression) [3]: efficiently inhibit quorum sensing
- quorum sensing inhibition, hemolysin expression [3]: most potent activity
- static biofilm formation [4]: increase in biofilm formation
- Kd [5]: ~0.8 µM
- Kd [6]: > 100 µM
